Target: T1, BcgI A subunit, E53A mutant (UniProt Q07605 1-637, E53A)
T1 sequence (looked up): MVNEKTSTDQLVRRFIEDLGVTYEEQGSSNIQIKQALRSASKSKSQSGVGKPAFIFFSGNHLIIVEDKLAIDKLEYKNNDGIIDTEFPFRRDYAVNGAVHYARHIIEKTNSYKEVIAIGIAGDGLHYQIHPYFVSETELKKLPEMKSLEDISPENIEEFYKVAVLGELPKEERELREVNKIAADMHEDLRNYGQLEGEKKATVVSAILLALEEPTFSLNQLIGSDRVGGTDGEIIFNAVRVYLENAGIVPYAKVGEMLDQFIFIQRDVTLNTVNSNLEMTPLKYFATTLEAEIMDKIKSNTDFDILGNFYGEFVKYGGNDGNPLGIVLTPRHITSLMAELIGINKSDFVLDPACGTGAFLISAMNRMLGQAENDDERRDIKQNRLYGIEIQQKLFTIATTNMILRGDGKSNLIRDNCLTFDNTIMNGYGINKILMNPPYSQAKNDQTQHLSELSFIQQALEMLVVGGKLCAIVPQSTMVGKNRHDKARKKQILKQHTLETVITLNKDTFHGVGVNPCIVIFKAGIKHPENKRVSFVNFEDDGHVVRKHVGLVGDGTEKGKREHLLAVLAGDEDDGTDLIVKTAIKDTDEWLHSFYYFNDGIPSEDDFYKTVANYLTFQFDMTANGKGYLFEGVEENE
Assay: native MS

binding result: binds
B1: BcgI B subunit (natural protein, UniProt Q07606 1-341, looked up)
chain: MNNLIKYSTFLISDLFDVVIGKTIDGNKAQRNENGTPYITRKATRNGFEFMIDGEKEKLYSGKLPVITIGNETSKPFVQEFHFFTGTKVNICIPKLDLNRNHLLYITTMIENATKMFSYSYTINSTRLKSLKILLPIKGEEPDWDYMNTYISKILSNMEKNFDVQQNDGVSDLRSLKDLSWSQFKMDEIFSINSGVRLTKADMKPGNIPFIGATDSNNGITEFTSSTNASFDGNVLGVNYNGSVVENFYHPYKAVFSDDVKRLKLKNYPNNKHVLLFMKVVILQQKVKYAYGYKFNATRMKEQIILLPTKADGTPDYEFMEQYMMRMENKVVGRTTEKEAD
